Laboratory results: US20210061904A1 (GMAX BIOPHARM, published 2021)

Legend:
[1] = molecular target: human GLP-1 receptor (hGLP-1R) (human) (UniProt P43220); assay: cell-based or functional assay
[2] = molecular target: T1, human gastric inhibitory polypeptide receptor (hGIPR) (human) (UniProt P48546); assay: cell-based or functional assay
T1 sequence: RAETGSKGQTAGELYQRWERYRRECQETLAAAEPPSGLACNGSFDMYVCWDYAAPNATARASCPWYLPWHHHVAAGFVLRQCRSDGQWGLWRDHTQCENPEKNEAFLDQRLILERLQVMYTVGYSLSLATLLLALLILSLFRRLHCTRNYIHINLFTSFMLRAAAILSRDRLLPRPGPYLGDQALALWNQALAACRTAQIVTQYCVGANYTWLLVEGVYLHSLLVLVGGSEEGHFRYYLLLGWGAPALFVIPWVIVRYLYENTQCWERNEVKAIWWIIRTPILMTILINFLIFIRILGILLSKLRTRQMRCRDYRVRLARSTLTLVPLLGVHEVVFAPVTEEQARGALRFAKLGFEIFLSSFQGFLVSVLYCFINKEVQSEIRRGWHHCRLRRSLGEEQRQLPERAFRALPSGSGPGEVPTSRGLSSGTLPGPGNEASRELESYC

[3] = molecular target: T2, human gastric inhibitory polypeptide receptor (hGIPR) (human, UniProt P48546 22-466); assay: cell-based or functional assay
T2 sequence: T1 sequence

[4] = molecular target: T2, human gastric inhibitory polypeptide …; assay: FACS on CHO-DHFR-hGIPR cells, 1 µM antibody
Protocol: PBS containing 10 mM EDTA was used to detach the CHO-DHFR-hGIPR cells and 10⁵ cells/tube was distributed into 1.5 mL EP tubes, and the supernatant was removed after centrifugation. The negative control sample was resuspended with a loading buffer (PBS, 2% FBS). For the positive control, 200 μL GIPR antibody solution of specific concentration was added to the cells and incubated at room temperature; after incubation, the cells were then centrifuged at 1500 rpm to remove the supernatant, washed with a FACS loading buffer and centrifuged again. The cells were resuspended with addition (200 μL/well) of a FITC labeled goat anti-mouse fluorescent antibody or PE labeled goat anti-human fluorescent antibody at 1:50 dilution and incubated at room temperature for 30 min in the dark. The supernatant was removed after centrifugation, and cells were washed with FACS loading buffer, centrifuged again and resuspended with the loading buffer for FACS analysis. The recombinant anti-hGIPR functional antibody specifically binds to GIPR-expressing CHO-DHFR-GIPR cells.

Chain of human GLP-1 receptor (hGLP-1R) (human) (P43220 24-463): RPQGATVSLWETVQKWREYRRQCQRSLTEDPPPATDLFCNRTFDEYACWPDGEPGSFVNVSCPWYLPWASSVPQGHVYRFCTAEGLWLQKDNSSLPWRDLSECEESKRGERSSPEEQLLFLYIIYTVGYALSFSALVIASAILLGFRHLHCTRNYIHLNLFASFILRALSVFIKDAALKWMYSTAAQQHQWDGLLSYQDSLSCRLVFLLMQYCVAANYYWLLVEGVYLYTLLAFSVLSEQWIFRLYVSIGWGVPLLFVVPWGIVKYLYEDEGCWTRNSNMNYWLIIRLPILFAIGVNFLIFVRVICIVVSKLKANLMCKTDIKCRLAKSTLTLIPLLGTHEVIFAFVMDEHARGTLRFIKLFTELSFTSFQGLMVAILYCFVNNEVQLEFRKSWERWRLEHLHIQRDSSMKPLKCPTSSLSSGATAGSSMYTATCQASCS

B1: GIPR antibody/GLP-1 fusion protein GLP-1-Linker-L7H6 (protein, part only; not given: constant regions, not shown: a dimerising Fc or GST)
light, part: HGEGTFTSDVSSYLEGQAAKEFIAWLVKGGGGGSGGGGSGGGGSDIVLTQSPASLAVSPGQRATITCRASQSVNTAVYSYIHWYQQKPGQPPKLLIKYASNLESGVPARFSGSGSGTDFTLTINPVEANDAANYYCQHSFDFPYTFGGGTKVEIKR
heavy, part: QVQLQESGPGLVKPSQTLSLTCTVSGYSITSDYAWNWIRQPPGKGVEWMGYISYRGIATYKPSLKSRITISRDTSKNQFSLKLSSVTAADTAVYYCVRGEYGPGNFDFWGQGTTVTVSS
[1]
  EC50, CRE-Luciferase reporter gene assay on CHO-DHFR- cells co-expressing hGLP1R: 0.04 nM
[2]
  IC50, direct cAMP assay, antagonism of GIP (50 pM) activation of hGIPR on CHO-DHFR cells: 14.9 nM

B2: hGIPR antibody L7H6 (antibody, V domains shown)
VH: B1 heavy, part
VL: DIVLTQSPASLAVSPGQRATITCRASQSVNTAVYSYIHWYQQKPGQPPKLLIKYASNLESGVPARFSGSGSGTDFTLTINPVEANDAANYYCQHSFDFPYTFGGGTKVEIKR
[3]
  IC50, direct cAMP assay, antagonism of GIP (50 pM) activation of hGIPR on CHO-DHFR cells: 7.6 nM

B3: hGIPR antibody L10H8 (antibody, V domains shown)
VH: QVQLQQSGAEVKKPGSSVKVSCKASGGTFSSYAISWVRQAPGQGLEWMGGIIPTFGTANYAQKFQGRVTITADESTSTAYMELSSLRSEDTAVYYCAQGPIVGAPTDYWGKGTLVTVSS
VL: SYVLTQPPSASGTPGQRVAISCSGSNSNIGSNTVHWYQQLPGAAPKLLIYSNNQRPSGVPDRFSGSNSGTSASLAISRLQSEDEADYYCAAWDDSLNGVVFGGGTKVTVL
notes: Recombinantly expressed complete antibody; Only the variable domains are tied to L10H8; also called Ll0H8
[4]
  binding result: binds
